Measured values as given in PMC9953321.

Target: eRF1 (not stated (S. cerevisiae or human protein prepared)) (UniProt P12385)
Chain of UniProt P12385 (P12385 whole entry): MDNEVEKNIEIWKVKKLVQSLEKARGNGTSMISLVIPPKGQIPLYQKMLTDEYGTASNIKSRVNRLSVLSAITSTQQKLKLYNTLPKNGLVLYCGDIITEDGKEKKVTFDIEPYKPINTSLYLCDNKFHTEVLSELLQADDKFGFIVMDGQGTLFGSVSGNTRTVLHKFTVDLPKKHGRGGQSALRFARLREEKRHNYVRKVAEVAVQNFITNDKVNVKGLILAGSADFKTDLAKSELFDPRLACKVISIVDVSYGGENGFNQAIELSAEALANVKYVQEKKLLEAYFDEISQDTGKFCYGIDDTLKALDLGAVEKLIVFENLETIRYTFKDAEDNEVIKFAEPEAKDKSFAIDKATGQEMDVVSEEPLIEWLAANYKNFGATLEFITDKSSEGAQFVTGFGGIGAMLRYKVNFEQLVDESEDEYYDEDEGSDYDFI

Chain of eRF3 (P05453 whole entry): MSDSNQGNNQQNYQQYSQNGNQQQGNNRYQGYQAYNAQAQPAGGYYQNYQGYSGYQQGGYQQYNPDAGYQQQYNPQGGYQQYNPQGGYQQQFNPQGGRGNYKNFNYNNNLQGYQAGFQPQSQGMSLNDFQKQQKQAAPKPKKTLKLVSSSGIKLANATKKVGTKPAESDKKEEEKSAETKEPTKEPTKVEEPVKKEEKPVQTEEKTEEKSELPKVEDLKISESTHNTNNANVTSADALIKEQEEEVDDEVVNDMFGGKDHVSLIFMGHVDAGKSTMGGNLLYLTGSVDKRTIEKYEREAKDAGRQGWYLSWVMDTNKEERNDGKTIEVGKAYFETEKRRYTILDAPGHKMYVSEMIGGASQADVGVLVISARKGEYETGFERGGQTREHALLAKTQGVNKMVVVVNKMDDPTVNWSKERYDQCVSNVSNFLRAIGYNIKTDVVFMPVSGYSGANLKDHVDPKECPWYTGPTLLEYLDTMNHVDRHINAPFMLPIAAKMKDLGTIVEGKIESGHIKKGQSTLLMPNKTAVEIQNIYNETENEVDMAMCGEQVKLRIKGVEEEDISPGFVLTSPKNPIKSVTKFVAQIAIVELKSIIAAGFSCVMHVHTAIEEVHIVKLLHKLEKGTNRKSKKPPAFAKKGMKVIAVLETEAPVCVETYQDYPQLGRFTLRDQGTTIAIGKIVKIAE

- formation of RFC at constant 0.8 µM eRF3 with 0.01 to 0.4 µM eRF1 ('early experiments' of the termination assay; how it was determined is not told): > 90%
Substance: eRF3 (from UniProt P05453 1-685) (natural protein)
